{"source": "paper PMC8113585", "about": "(2020)", "molecular_target": "SARS-CoV-2 full-length nucleocapsid (N) protein (N-FL: 1-419) (SARS-CoV-2, UniProt P0DTC9 1-419)", "assay": "ELISA"}
{"binder": "human monoclonal antibody nCoV396, recombinant IgG1 (antibody, V domains shown) VH: QVQLVESGGGVVQPGRSLRLSCAASGFTFSSYIMHWVRQAPGKGLEWVAVISYDGSNEAYADSVKGRFTISRDNSKNTLYLQMSSLRAEDTGVYYCARETGDYSSSWYDSWGRGTLVTVSS VL: QLVLTQSPSASASLGASVKLTCTLSSGHSNYAIAWHQQQPEKGPRYLMKVNSDGSHTKGDGIPDRFSGSSSGAERYLTISSLQSEDEADYYCQTWGTGIQVFGGGTKLTVL", "values": [{"measurement": "EC50", "value": 3.2, "unit": "ng/mL"}]}
